# T1: human integrin avb3 (human, UniProt P06756)
# T1 chain 1: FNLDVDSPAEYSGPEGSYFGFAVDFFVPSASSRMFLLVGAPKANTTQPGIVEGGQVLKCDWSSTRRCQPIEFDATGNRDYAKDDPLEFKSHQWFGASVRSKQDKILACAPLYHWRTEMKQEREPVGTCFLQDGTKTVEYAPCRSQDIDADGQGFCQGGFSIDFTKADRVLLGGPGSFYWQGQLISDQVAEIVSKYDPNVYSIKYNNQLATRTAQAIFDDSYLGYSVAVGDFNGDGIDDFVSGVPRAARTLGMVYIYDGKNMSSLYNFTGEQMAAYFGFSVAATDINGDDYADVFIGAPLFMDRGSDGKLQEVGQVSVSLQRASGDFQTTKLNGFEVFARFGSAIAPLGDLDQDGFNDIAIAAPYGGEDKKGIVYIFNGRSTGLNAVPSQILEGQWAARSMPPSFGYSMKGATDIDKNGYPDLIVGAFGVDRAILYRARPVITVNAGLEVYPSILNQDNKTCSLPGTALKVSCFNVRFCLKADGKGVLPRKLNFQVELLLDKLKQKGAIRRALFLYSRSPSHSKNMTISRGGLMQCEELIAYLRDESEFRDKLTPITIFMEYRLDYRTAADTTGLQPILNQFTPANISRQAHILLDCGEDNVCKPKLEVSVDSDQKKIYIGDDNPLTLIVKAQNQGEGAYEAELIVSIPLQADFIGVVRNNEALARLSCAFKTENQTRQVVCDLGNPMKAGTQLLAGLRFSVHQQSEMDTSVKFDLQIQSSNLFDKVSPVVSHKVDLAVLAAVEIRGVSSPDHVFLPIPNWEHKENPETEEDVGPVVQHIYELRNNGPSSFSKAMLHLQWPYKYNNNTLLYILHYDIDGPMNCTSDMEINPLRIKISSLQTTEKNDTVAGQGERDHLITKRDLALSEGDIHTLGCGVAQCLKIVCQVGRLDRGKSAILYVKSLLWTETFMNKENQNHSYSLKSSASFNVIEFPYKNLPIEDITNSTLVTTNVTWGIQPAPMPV
# T1 chain 2: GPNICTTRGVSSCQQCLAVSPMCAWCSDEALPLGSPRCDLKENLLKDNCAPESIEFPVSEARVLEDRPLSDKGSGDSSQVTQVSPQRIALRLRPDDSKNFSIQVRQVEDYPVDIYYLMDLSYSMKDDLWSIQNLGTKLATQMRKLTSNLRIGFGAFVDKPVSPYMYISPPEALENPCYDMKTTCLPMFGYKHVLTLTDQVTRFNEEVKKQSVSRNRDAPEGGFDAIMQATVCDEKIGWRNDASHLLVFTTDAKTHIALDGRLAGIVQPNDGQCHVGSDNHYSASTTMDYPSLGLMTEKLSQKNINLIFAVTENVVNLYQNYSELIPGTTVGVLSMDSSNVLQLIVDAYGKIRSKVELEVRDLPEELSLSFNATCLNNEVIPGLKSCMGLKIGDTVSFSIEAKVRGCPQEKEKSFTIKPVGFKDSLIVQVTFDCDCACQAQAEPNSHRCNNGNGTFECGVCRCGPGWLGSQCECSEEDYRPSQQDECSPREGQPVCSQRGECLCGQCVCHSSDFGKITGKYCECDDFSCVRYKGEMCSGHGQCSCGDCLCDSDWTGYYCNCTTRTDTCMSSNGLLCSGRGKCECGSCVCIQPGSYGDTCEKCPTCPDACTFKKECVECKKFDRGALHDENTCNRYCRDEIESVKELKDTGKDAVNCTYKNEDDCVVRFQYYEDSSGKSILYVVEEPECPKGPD
# B1: ADWA11 2.4 IgG (antibody)
# chain 1: EVQLVESGGGLVQPGGSLRLSCAASGFNIKDYYMNWVRQAPGKGLEWVGWIDPDQGNTIYEPKFQGRFTISADTSKNSAYLQMNSLRAEDTAVYYCARRLLMDYWGQGTLVTVSSASTKGPSVFPLAPSSKSTSGGTAALGCLVKDYFPEPVTVSWNSGALTSGVHTFPAVLQSSGLYSLSSVVTVPSSSLGTQTYICNVNHKPSNTKVDKKVEPKSCDKTHTCPPCPAPEAAGAPSVFLFPPKPKDTLMISRTPEVTCVVVDVSHEDPEVKFNWYVDGVEVHNAKTKPREEQYNSTYRVVSVLTVLHQDWLNGKEYKCKVSNKALPAPIEKTISKAKGQPREPQVYTLPPSREEMTKNQVSLTCLVKGFYPSDIAVEWESNGQPENNYKTTPPVLDSDGSFFLYSKLTVDKSRWQQGNVFSCSVMHEALHNHYTQKSLSLSPGK
# chain 2: DIQMTQSPSSLSASVGDRVTITCRSTKSLSHFNGNTYLFWYQQKPGKAPKRLIYYMSSLASGVPSRFSGSGSGTDFTLTISSLQPEDFATYYCQQSLEYPFTFGGGTKVEIKRTVAAPSVFIFPPSDEQLKSGTASVVCLLNNFYPREAKVQWKVDNALQSGNSQESVTEQDSKDSTYSLSSTLTLSKADYEKHKVYACEVTHQGLSSPVTKSFNRGEC
# Target: T1, human integrin avb3
# Test: SPR
binder,measurement,value
B1,binding result,no binding
